In paper PMC5498496:

Tests used:
[1] = αIIbβ3 cell surface expression, flow cytometry; conditions: glycan lost; control: wild-type αIIb with β3
[2] = surface expression by mAbs 10E5, AP2, AP3, flow cytometry; conditions: glycan lost; control: wild-type αIIbβ3
[3] = eptifibatide-induced mAb binding, flow cytometry; conditions: glycan lost; control: wild-type αIIb with β3
[4] = β3-K716A-mediated mAb binding, flow cytometry; conditions: glycan lost; control: wild-type αIIb with active β3-K716A

Substance | expression_or_secretion [1] | structure_or_conformation [3] | other results
integrin αIIb subunit: αIIb-N931Q | decreases |  | 
integrin αIIb subunit: αIIb-N570Q | decreases |  | 
integrin αIIb subunit: αIIb-N15S |  | no change | expression_or_secretion [2]: no change
integrin αIIb subunit: αIIb-N249Q | decreases |  | 
integrin αIIb subunit: αIIb-N15Q | no change |  | 
integrin αIIb subunit: αIIb-N249S |  | no change | structure_or_conformation [4]: no change
integrin αIIb subunit: αIIb-N680Q | decreases |  | 
integrin αIIb subunit: αIIb-N931S |  | no change | 
